Target: S2-AAL, monovalent form of Aleuria aurantia lectin (Aleuria aurantia)
Assay: microfluidic displacement assay with fluorescence detection; S2-AAL immobilised on the PDMS/glass microchannel (APTES, glutaraldehyde), blocked with BSA; labeled lactoferrin 0.15 mg/ml in PBS perfused, washed with PBS; then fucose in PBS or PBS alone at 0.1 ul/min; fluorescence at the …

## Human lactoferrin isolated from breast milk, labeled with DyLight 488 (natural protein)
  % of initial fluorescence intensity left after 10 min perfusion with PBS only: 99%

Reference: publication PMC6579771
